What was measured:
human PMEL17 = target: T1, human PMEL17 (human, UniProt P40967 25-661); experiment: FACS on live cells, hybridoma supernatant
T1 construct: Untagged PMEL17 as it occurs on melanoma cell lines, normal human melanocytes, PC3 cells stably expressing PMEL17 cDNA, and in human tissue sections; also called Melanocyte protein PMEL17
T1 sequence: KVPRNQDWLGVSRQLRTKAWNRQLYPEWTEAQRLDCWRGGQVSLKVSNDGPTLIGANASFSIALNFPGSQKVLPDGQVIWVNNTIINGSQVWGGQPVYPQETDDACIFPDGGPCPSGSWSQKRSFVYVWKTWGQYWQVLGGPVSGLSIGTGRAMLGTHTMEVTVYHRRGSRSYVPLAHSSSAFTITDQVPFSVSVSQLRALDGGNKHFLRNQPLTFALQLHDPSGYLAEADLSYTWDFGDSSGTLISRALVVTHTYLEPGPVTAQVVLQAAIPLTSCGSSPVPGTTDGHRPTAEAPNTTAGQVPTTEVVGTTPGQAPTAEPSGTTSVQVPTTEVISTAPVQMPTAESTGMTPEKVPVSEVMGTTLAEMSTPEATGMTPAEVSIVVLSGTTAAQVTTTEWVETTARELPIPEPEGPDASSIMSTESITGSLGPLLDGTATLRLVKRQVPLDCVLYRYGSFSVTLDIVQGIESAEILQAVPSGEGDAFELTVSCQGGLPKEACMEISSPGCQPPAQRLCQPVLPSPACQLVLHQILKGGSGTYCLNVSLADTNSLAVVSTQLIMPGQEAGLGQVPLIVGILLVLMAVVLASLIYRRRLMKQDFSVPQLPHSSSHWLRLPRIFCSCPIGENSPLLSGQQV
Text: After 10-14 days, the supernatants were harvested and screened by ELISA and FACS. For FACS analysis, melanoma cell lines SK-MEL-23 (provided by Paul Robbins, Center for Cancer Research, Tumor Immunology Section), 1300mel (provided by Paul Robbins, Center for Cancer Research, Tumor Immunology Section), SKMELS (ATCC HTB-70), and UACC257 (National Cancer Institute), normal melanocytes (Invitrogen, Carlsbad, Calif.), and the prostate cancer cell line PC3 stably expressing human PMEL17 were contacted with antibody. One antibody from the PMEL17-immunized mice, designated 17A9, reacted strongly by fluorescent activated cell sorting (FACS) with live melanoma cells, normal human melanocytes and a PC3 cell line stably expressing PMEL17 cDNA, but not the parental PC3 cell line. Another antibody, 77E6, obtained from the DNA-immunized mice, was also positive by FACS, although 77E6 reacted with live cell lines expressing PMEL17 somewhat inconsistently and more weakly than 17A9.

[1] = target: T2, mouse PMEL17 with an N-terminal gD tag (mouse, UniProt Q60696 26-626); experiment: FACS, 293S cells stably transfected with gD tagged PMEL17, 10 µg/ml 17A9
T2 construct: On stably transfected 293S cells; also called N-terminal gD tagged PMEL17 (mouse)
T2 sequence: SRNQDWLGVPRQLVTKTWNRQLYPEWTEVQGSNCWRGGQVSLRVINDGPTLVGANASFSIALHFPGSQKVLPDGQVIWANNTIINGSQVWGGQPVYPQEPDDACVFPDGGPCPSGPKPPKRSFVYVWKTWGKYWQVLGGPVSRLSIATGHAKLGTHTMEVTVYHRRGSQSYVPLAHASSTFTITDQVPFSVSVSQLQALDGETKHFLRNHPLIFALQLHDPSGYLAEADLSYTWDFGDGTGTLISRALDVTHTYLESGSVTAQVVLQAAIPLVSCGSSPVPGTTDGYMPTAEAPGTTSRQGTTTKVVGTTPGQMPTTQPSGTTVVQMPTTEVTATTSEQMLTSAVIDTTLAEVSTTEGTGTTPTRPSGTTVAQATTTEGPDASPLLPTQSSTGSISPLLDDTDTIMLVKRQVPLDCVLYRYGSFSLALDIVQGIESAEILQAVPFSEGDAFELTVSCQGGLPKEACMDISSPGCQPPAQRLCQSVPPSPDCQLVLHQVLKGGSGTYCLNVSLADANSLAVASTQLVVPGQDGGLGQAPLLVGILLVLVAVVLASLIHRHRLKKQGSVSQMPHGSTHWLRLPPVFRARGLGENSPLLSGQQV
Description: (§1) Antibody 17A9 was tested to determine if it cross-reacts with PMEL17 from species other than human. […] All of the sequences include the signal sequence except for the cynomolgus monkey PMEL17. Residues that are identical among all four species are indicated by asterisks (*). In the region where the rat sequence has a deletion, residues that are identical among the remaining three species are indicated by a plus (+). Binding to each species of PMEL17 was determined by FACS analysis using 293S cells stably transfected with an N-terminal gD tagged PMEL17 (human, cynomolgus monkey, rat, or mouse PMEL17); stained with 10 μg/ml 17A9 antibody; and detected with R-Phycoerythrin conjugated goat anti-mouse antibody.

[2] = target: T3, cynomolgus monkey PMEL17 with an N-terminal gD tag (cynomolgus monkey, UniProt P40967 25-661 (human entry)); experiment: as above
T3 construct: On stably transfected 293S cells; also called N-terminal gD tagged PMEL17 (cynomolgus monkey)
T3 chain: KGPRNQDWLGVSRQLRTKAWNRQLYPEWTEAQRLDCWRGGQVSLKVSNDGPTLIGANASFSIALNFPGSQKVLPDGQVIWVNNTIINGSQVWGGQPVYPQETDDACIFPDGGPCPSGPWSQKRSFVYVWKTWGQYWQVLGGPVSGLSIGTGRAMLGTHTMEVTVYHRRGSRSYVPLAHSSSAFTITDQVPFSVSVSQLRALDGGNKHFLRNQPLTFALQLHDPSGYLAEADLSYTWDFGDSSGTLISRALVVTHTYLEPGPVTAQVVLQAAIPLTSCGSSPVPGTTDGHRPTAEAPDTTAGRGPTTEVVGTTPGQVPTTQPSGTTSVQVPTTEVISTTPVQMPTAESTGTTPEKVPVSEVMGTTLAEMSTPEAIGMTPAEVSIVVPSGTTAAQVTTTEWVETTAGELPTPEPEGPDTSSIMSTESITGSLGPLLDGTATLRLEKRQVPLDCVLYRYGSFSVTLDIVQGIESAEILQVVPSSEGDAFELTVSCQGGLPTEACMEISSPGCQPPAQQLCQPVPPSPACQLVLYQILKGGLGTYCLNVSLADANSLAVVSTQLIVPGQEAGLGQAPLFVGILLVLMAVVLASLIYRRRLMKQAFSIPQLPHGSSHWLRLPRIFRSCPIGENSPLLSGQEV
Description: as §1

Measured: binding result

B1: 17A9 (antibody, V domains shown)
VH: EVQLQQSGPELVKPGASMKISCKSSGYSFTRYTMNWVKQSHGKNLEWIGVINPYNGGTVYNQKFKGKATLTVDKSSSTAYMELLSLTSEDSAVYYCARTDYDGYAMDYWGQGTSVTVSS
VL: DVQITQSPSYLAASPGETITINCRATKSISKYLAWYQEQPGKTNNLLIYSGSTLQSGIPSRFSGSGSGTDFTLTISSLEPEDFAMYYCQQHNEYPYTFGSGTKLEIK
notes: Mouse monoclonal antibody from a hybridoma (mice immunized with PMEL17 ECD-Fc); also called anti-PMEL17 antibody 17A9
binds: all assays above

Reference: patent US20170240645A1 (Genentech, published 2017)
